# Biological target: T1, recombinant gp160 (HIV-1 group M subtype B, IIIB (clone …, UniProt P03375, strain))
# T1 construct: also called rgp160; source: bought: Quality Biological; recombinant, expressed in mammalian cells
# Assay: SPR
# Conditions: both partners purified
binder,measurement,value
"7B2 (antibody, V domains shown, also called anti-gp41 Ab (7B2); 7B2 parent; source: 293F cells, transiently transfected; purified from supernatant on Protein A agarose) VH: QVQLVQSGGGVFKPGGSLRLSCEASGFTFTEYYMTWVRQAPGKGLEWLAYISKNGEYSKYSPSSNGRFTISRDNAKNSVFLQLDRLSADDTAVYYCARADGLTYFSELLQYIFDLWGQGARVTVSS VL: DIVMTQSPDSLAVSPGERATIHCKSSQTLLYSSNNRHSIAWYQQRPGQPPKLLLYWASMRLSGVPDRFSGSGSGTDFTLTINNLQAEDVAIYYCHQYSSHPPTFGHGTRVELR",binding result,binds

# Reference: PMC3464217, “Anti-HIV Double Variable Domain Immunoglobulins Binding Both gp41 and gp120 for Targeted Delivery of Immunoconjugates” (PLoS ONE, 2012)
